From PMC9944328 (Nature Communications, 2023)

How the values were obtained:
[1] = target: human full-length SSTR3 wild-type (human) (UniProt P32745)
[2] = target: human full-length SSTR2 V103^2.64N (human) (UniProt P30874)
[3] = target: human full-length SSTR2 T194^45.51H (human) (UniProt P30874)
[4] = target: human full-length SSTR2 wild-type (human) (UniProt P30874)
[5] = target: human full-length SSTR3 H192^45.51T (human) (UniProt P32745)
[6] = target: human full-length SSTR3 N101^2.64V (human) (UniProt P32745)
SSTR2 S279^6.58A (human) = SSTR2 S279^6.58A (human) (UniProt P30874)
SSTR2 F272^6.51A (human) = SSTR2 F272^6.51A (human) (UniProt P30874)
SSTR2 Y302^7.43A (human) = SSTR2 Y302^7.43A (human) (UniProt P30874)
SSTR2 F294^7.35A (human) = SSTR2 F294^7.35A (human) (UniProt P30874)
SSTR2 F127^3.37A (human) = SSTR2 F127^3.37A (human) (UniProt P30874)
SSTR2 P286^ECL3A (human) = SSTR2 P286^ECL3A (human) (UniProt P30874)
SSTR2 K291^7.32A (human) = SSTR2 K291^7.32A (human) (UniProt P30874)
SSTR2 N276^6.55A (human) = SSTR2 N276^6.55A (human) (UniProt P30874)
[7] = target: human full-length SSTR2 wild-type with SmBiT at the C-terminus (human) (UniProt P30874)
SSTR2 I284^ECL3A (human) = SSTR2 I284^ECL3A (human) (UniProt P30874)
SSTR2 Y205^5.35A (human) = SSTR2 Y205^5.35A (human) (UniProt P30874)
SSTR2 W188^ECL3A (human) = SSTR2 W188^ECL3A (human) (UniProt P30874)
SSTR2 Q102^2.63A (human) = SSTR2 Q102^2.63A (human) (UniProt P30874)
SSTR2 L99^2.60A (human) = SSTR2 L99^2.60A (human) (UniProt P30874)
[8] = target: SSTR2 I195^45.52A (human) (UniProt P30874)
SSTR2 S285^ECL3A (human) = SSTR2 S285^ECL3A (human) (UniProt P30874)
SSTR2 F208^5.38A (human) = SSTR2 F208^5.38A (human) (UniProt P30874)
SSTR2 T287^ECL3A (human) = SSTR2 T287^ECL3A (human) (UniProt P30874)
[9] = target: SSTR2 T194^45.51A (human) (UniProt P30874)
SSTR2 V103^2.64N (human) = SSTR2 V103^2.64N (human) (UniProt P30874)
SSTR3 N101^2.64V (human) = SSTR3 N101^2.64V (human) (UniProt P32745)
[10] = target: human full-length SSTR3 wild-type (human) (UniProt P32745); remark: listed apart in the source
[11] = target: human full-length SSTR2 wild-type with SmBiT at the C-terminus (human) (UniProt P30874); remark: listed apart in the source
[12] = target: SSTR2 T194^45.51H (human) (UniProt P30874)
[13] = target: SSTR3 H192^45.51T (human) (UniProt P32745)
SSTR3 H192^45.51T (human), sequence (P32745 whole entry H192T): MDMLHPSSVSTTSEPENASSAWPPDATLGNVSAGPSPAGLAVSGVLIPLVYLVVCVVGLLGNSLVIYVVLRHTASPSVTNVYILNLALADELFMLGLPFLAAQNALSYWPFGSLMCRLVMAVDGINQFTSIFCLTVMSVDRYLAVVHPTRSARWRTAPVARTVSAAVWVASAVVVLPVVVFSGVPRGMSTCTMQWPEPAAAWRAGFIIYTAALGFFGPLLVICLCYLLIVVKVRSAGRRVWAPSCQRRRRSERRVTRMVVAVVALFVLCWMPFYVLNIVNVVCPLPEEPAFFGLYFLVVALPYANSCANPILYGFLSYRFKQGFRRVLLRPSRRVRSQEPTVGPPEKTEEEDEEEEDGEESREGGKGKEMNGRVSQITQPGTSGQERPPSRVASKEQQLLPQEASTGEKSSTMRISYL

human full-length SSTR3 wild-type (human), sequence (P32745 whole entry): as the sequence (P32745 whole entry H192T) above, with T192H counted along it
human full-length SSTR2 V103^2.64N (human), sequence (P30874 whole entry V103N): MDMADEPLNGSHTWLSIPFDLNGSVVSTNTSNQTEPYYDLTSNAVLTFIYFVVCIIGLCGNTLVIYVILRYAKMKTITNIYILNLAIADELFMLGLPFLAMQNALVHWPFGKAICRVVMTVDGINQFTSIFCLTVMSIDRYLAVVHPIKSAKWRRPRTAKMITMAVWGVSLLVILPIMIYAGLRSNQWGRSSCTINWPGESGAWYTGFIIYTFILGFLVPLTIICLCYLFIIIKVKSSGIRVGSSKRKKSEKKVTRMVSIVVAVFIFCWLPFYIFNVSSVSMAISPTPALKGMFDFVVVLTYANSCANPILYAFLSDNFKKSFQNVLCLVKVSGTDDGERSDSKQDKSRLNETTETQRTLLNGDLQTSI
human full-length SSTR3 N101^2.64V (human), sequence (P32745 whole entry): as the sequence (P32745 whole entry H192T) above, with T192H counted along it
human full-length SSTR2 T194^45.51H (human), sequence (P30874 whole entry T194H): as the sequence (P30874 whole entry V103N) above, with N103V, T194H counted along it
human full-length SSTR2 wild-type (human), sequence (P30874 whole entry): as the sequence (P30874 whole entry V103N) above, with N103V counted along it
human full-length SSTR2 wild-type with SmBiT at the C-terminus (human), sequence (P30874 whole entry): as the sequence (P30874 whole entry V103N) above, with N103V counted along it
human full-length SSTR3 H192^45.51T (human), sequence (P32745 whole entry H192T): as the sequence (P32745 whole entry H192T) above
SSTR2 F272^6.51A (human), sequence (P30874 whole entry F272A): as the sequence (P30874 whole entry V103N) above, with N103V, F272A counted along it
SSTR2 V103^2.64N (human), sequence (P30874 whole entry V103N): as the sequence (P30874 whole entry V103N) above
SSTR2 F294^7.35A (human), sequence (P30874 whole entry F294A): as the sequence (P30874 whole entry V103N) above, with N103V, F294A counted along it
SSTR2 T287^ECL3A (human), sequence (P30874 whole entry T287A): as the sequence (P30874 whole entry V103N) above, with N103V, T287A counted along it
SSTR2 Q102^2.63A (human), sequence (P30874 whole entry Q102A): as the sequence (P30874 whole entry V103N) above, with Q102A, N103V counted along it
SSTR2 Y205^5.35A (human), sequence (P30874 whole entry Y205A): as the sequence (P30874 whole entry V103N) above, with N103V, Y205A counted along it
SSTR3 N101^2.64V (human), sequence (P32745 whole entry): as the sequence (P32745 whole entry H192T) above, with T192H counted along it
SSTR2 S285^ECL3A (human), sequence (P30874 whole entry S285A): as the sequence (P30874 whole entry V103N) above, with N103V, S285A counted along it
SSTR2 T194^45.51H (human), sequence (P30874 whole entry T194H): as the sequence (P30874 whole entry V103N) above, with N103V, T194H counted along it
SSTR2 T194^45.51A (human), sequence (P30874 whole entry T194A): as the sequence (P30874 whole entry V103N) above, with N103V, T194A counted along it
SSTR2 K291^7.32A (human), sequence (P30874 whole entry K291A): as the sequence (P30874 whole entry V103N) above, with N103V, K291A counted along it
SSTR2 P286^ECL3A (human), sequence (P30874 whole entry P286A): as the sequence (P30874 whole entry V103N) above, with N103V, P286A counted along it
SSTR2 I284^ECL3A (human), sequence (P30874 whole entry I284A): as the sequence (P30874 whole entry V103N) above, with N103V, I284A counted along it
SSTR2 L99^2.60A (human), sequence (P30874 whole entry L99A): as the sequence (P30874 whole entry V103N) above, with L99A, N103V counted along it
SSTR2 S279^6.58A (human), sequence (P30874 whole entry S279A): as the sequence (P30874 whole entry V103N) above, with N103V, S279A counted along it
SSTR2 N276^6.55A (human), sequence (P30874 whole entry N276A): as the sequence (P30874 whole entry V103N) above, with N103V, N276A counted along it
SSTR2 Y302^7.43A (human), sequence (P30874 whole entry Y302A): as the sequence (P30874 whole entry V103N) above, with N103V, Y302A counted along it
SSTR2 F208^5.38A (human), sequence (P30874 whole entry F208A): as the sequence (P30874 whole entry V103N) above, with N103V, F208A counted along it
SSTR2 W188^ECL3A (human), sequence (P30874 whole entry W188A): as the sequence (P30874 whole entry V103N) above, with N103V, W188A counted along it
SSTR2 F127^3.37A (human), sequence (P30874 whole entry F127A): as the sequence (P30874 whole entry V103N) above, with N103V, F127A counted along it
SSTR2 I195^45.52A (human), sequence (P30874 whole entry I195A): as the sequence (P30874 whole entry V103N) above, with N103V, I195A counted along it

octreotide induced cAMP inhibition (GloSensor, HEK293 cells, 1e-13 to 1e-06): EC50 of the fit WT-1 (SSTR3) [1]: 54.7 nM
octreotide induced cAMP inhibition (GloSensor, HEK293 cells, 1e-13 to 1e-06): EC50 of the fit WT-2 (SSTR3) [1]: 30.1 nM
octreotide induced cAMP inhibition (GloSensor, HEK293 cells, 1e-13 to 1e-06): EC50 of the fit V103N-1 [2]: 227 pM
octreotide induced cAMP inhibition (GloSensor, HEK293 cells, 1e-13 to 1e-06): EC50 of the fit V103N-2 [2]: 227 pM
octreotide induced cAMP inhibition (GloSensor, HEK293 cells, 1e-13 to 1e-06): EC50 of the fit T194H-1 [3]: 28.2 nM
octreotide induced cAMP inhibition (GloSensor, HEK293 cells, 1e-13 to 1e-06): EC50 of the fit T194H-2 [3]: 28.2 nM
octreotide induced cAMP inhibition (GloSensor, HEK293 cells, 1e-13 to 1e-06): EC50 of the fit WT-1 [4]: 208 pM
octreotide induced cAMP inhibition (GloSensor, HEK293 cells, 1e-13 to 1e-06): EC50 of the fit WT-2 [4]: 208 pM
octreotide induced cAMP inhibition (GloSensor, HEK293 cells, 1e-13 to 1e-06): EC50 of the fit H192T-1 [5]: 82.9 nM
octreotide induced cAMP inhibition (GloSensor, HEK293 cells, 1e-13 to 1e-06): EC50 of the fit H192T-2 [5]: 21 nM
octreotide induced cAMP inhibition (GloSensor, HEK293 cells, 1e-13 to 1e-06): EC50 of the fit N101V-1 [6]: 2.5 nM
octreotide induced cAMP inhibition (GloSensor, HEK293 cells, 1e-13 to 1e-06): EC50 of the fit N101V-2 [6]: 1.33 nM
EC50 of octreotide-induced cAMP inhibition (Gi signaling, GloSensor, HEK293 cells expressing the receptor) (SSTR2 S279^6.58A (human)): 1.17 nM
EC50 of octreotide-induced cAMP inhibition (Gi signaling, GloSensor, HEK293 cells expressing the receptor) (SSTR2 F272^6.51A (human)): 322 nM
EC50 of octreotide-induced cAMP inhibition (Gi signaling, GloSensor, HEK293 cells expressing the receptor) (SSTR2 Y302^7.43A (human)): 79 nM
EC50 of octreotide-induced cAMP inhibition (Gi signaling, GloSensor, HEK293 cells expressing the receptor) (SSTR2 F294^7.35A (human)): 190 nM
EC50 of octreotide-induced cAMP inhibition (Gi signaling, GloSensor, HEK293 cells expressing the receptor) (SSTR2 F127^3.37A (human)): 1.93 nM
EC50 of octreotide-induced cAMP inhibition (Gi signaling, GloSensor, HEK293 cells expressing the receptor) (SSTR2 P286^ECL3A (human)): 0.62 nM
EC50 of octreotide-induced cAMP inhibition (Gi signaling, GloSensor, HEK293 cells expressing the receptor) (SSTR2 K291^7.32A (human)): 5.46 nM
EC50 of octreotide-induced cAMP inhibition (Gi signaling, GloSensor, HEK293 cells expressing the receptor) (SSTR2 N276^6.55A (human)): 35.1 nM
EC50 of octreotide-induced cAMP inhibition (Gi signaling, GloSensor, HEK293 cells expressing the receptor) [7]: 0.46 nM
EC50 of octreotide-induced cAMP inhibition (Gi signaling, GloSensor, HEK293 cells expressing the receptor) (SSTR2 I284^ECL3A (human)): 1.91 nM
EC50 of octreotide-induced cAMP inhibition (Gi signaling, GloSensor, HEK293 cells expressing the receptor) (SSTR2 Y205^5.35A (human)): 0.92 nM
EC50 of octreotide-induced cAMP inhibition (Gi signaling, GloSensor, HEK293 cells expressing the receptor) (SSTR2 W188^ECL3A (human)): 0.32 nM
EC50 of octreotide-induced cAMP inhibition (Gi signaling, GloSensor, HEK293 cells expressing the receptor) (SSTR2 Q102^2.63A (human)): 66.8 nM
EC50 of octreotide-induced cAMP inhibition (Gi signaling, GloSensor, HEK293 cells expressing the receptor) (SSTR2 L99^2.60A (human)): 1.25 nM
EC50 of octreotide-induced cAMP inhibition (Gi signaling, GloSensor, HEK293 cells expressing the receptor) [8]: 6.58 nM
EC50 of octreotide-induced cAMP inhibition (Gi signaling, GloSensor, HEK293 cells expressing the receptor) (SSTR2 S285^ECL3A (human)): 0.69 nM
EC50 of octreotide-induced cAMP inhibition (Gi signaling, GloSensor, HEK293 cells expressing the receptor) (SSTR2 F208^5.38A (human)): 6.42 nM
EC50 of octreotide-induced cAMP inhibition (Gi signaling, GloSensor, HEK293 cells expressing the receptor) (SSTR2 T287^ECL3A (human)): 0.6 nM
EC50 of octreotide-induced cAMP inhibition (Gi signaling, GloSensor, HEK293 cells expressing the receptor) [9]: 48.5 nM
EC50 of octreotide-induced cAMP inhibition (GloSensor, HEK293 cells expressing the receptor; Supplementary Table 5) (SSTR2 V103^2.64N (human)): 0.23 nM
EC50 of octreotide-induced cAMP inhibition (GloSensor, HEK293 cells expressing the receptor; Supplementary Table 5) (SSTR3 N101^2.64V (human)): 1.33 nM
EC50 of octreotide-induced cAMP inhibition (GloSensor, HEK293 cells expressing the receptor; Supplementary Table 5) [10]: 30.1 nM
EC50 of octreotide-induced cAMP inhibition (GloSensor, HEK293 cells expressing the receptor; Supplementary Table 5) [11]: 0.21 nM
EC50 of octreotide-induced cAMP inhibition (GloSensor, HEK293 cells expressing the receptor; Supplementary Table 5) [12]: 18.7 nM
EC50 of octreotide-induced cAMP inhibition (GloSensor, HEK293 cells expressing the receptor; Supplementary Table 5) [13]: 21 nM
Substance: octreotide (peptide)
